Sequences and labels used below:
B1: TSLP^Δ127–131 (ligand, human, UniProt Q969D9-1 29-159, looked up)
chain: YDFTNCDFEKIKAAYLSTISKDLITYMSGTKSTEFNNTVSCSNRPHCLTEIQSLTFNPTAGCASLAKEMFAMKTKAALAIWCPGYSETQINATQAMKKVTTNKCLEQVSQLQGLWRRFNRPLLKQQ
notes: His tag removed with thrombin; also called non-glycosylated human TSLP lacking a basic cassette; not shown: His6, N-terminal, cleaved
B2: TSLPR^N47Q (domain or fragment, human, UniProt Q9HC73-1 23-221, looked up)
chain: QGGAAEGVQIQIIYFNLETVQVTWQASKYSRTNLTFHYRFNGDEAYDQCTNYLLQEGHTSGCLLDAEQRDDILYFSIRNGTHPVFTASRWMVYYLKPSSPKHVRFSWHQDAVTVTCSDLSYGDLLYEVQYRSPFDTEWQSKQENTCNVTIEGLDAEKCYSFWVRVKAMEDVYGPDTYPSDWSEVTCWQRGEIRDACAET
notes: signal peptide in the construct; extracellular fragment of human TSLPR, NP_071431.2, residues 1-221, N-glycosylation mutant N47Q; also called EndoH-treated TSLPR^N47Q
B3: refolded IL-7Rα ectodomain (domain or fragment, human, UniProt P16871-1 21-239, looked up)
chain: ESGYAQNGDLEDAELDDYSFSCYSQLEVNGSQHSLTCAFEDPDVNITNLEFEICGALVEVKCLNFRKLQEIYFIETKKFLLIGKSNICVKVGEKSLTCKKIDLTTIVKPEAPFDLSVVYREGANDFVVTFNTSHLQKKYVKVLMHDVAYRQEKDENKWTHVNLSSTKLTLLQRKLQPAAMYEIKVRSIPDHYFKGFWSEWSPSYYFRTPEINNSSGEMD
notes: extracellular fragment of human IL-7Rα, NP_002176.2, residues 21-239; His tag removed with thrombin; also called IL-7Rα ectodomain (E. coli); not shown: His6, N-terminal, cleaved

What all share (settings): both partners purified
The target in experiment [1] is B2. As to the kind of experiment: SEC-MALS; Superdex 200 Increase 10/300 GL, HBS pH 7.4, 0.5 ml/min, 25 °C; glycan-minimized ternary complex. (SEC sorts molecules by how far they enter the pores of the column.)
Experiment [2] addresses B3. As to the kind of experiment: crystal structure; TSLP^Δ127–131:TSLPR^N47Q:IL-7Rα complex; 0.02 M citric acid, 0.08 M BIS-TRIS propane pH 8.8, 16% PEG 3,350, 293 K; 2.55 Å.
For experiment [3], the target named is T1, binary TSLP^Δ127–131:TSLPR^N47Q complex (human, UniProt Q969D9-1 29-159; Q9HC73-1 23-221, Δ127–131 | N47Q).
T1 construct: as the chain of m8; signal peptide in the construct; extracellular fragment of human TSLPR, NP_071431.2, residues 1-221, N47Q; as the chain of m9; also called TSLP:TSLPR^N47Q complex; not shown: His6, N-terminal, cleaved; copies: 1 + 1
As to the kind of experiment: SEC-MALS; Superdex 200 Increase 10/300 GL, HBS pH 7.4, 0.5 ml/min, 25 °C; glycan-minimized ternary complex.

As a reminder, the stoichiometry N is the number of molecules, sites or subunits per partner or assembly. B1: the “stoichiometry N” value in experiment [1] was determined as 1.
For the molecule B2, in experiment [2], the binding result is on record as “binds”.
Turning to B3, the “stoichiometry N” value in experiment [3] was 1.

The values are drawn from PMC5382266 (Nature Communications, 2017).
